T1: soluble human IL-31 receptor (human, UniProt Q8NI17 20-514)
T1 construct: also called soluble NR10; NR10
T1 sequence: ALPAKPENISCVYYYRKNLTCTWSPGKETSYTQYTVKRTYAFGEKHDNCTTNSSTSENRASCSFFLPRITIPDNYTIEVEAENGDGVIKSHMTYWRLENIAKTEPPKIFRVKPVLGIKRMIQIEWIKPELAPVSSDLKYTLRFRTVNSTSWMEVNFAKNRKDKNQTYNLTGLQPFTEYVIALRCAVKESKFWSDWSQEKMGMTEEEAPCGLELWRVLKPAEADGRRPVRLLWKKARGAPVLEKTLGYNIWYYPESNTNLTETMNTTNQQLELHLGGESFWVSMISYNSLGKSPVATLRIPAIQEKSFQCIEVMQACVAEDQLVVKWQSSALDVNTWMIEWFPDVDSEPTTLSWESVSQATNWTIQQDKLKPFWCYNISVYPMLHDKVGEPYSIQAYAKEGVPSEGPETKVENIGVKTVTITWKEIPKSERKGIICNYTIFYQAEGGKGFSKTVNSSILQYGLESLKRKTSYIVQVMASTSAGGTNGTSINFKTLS

T2: recombinant human IL-6R sR (R&D systems) (human, UniProt P08887 20-358)
T2 construct: Bought soluble receptor; also called rhIL-6sR; rhIL-s6R
T2 sequence (looked up): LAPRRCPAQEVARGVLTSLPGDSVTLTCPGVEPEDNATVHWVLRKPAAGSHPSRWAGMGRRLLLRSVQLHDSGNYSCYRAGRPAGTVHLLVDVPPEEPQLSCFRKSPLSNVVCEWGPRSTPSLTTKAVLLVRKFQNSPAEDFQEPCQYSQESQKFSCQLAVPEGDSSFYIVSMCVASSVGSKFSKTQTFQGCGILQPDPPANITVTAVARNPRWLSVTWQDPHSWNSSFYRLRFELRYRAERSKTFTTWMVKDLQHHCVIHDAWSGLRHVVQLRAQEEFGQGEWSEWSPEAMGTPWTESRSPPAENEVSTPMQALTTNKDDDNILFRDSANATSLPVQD


molecular target: T1, soluble human IL-31 receptor; assay: SPR (Biacore T100), antibody captured on Protein A, soluble human IL-31 receptor as analyte
Method: The antigen-antibody reaction kinetics between anti-human IL-31 receptor antibody and soluble human IL-31 receptor was analyzed using Biacore T100 (GE Healthcare Biosciences). The antigen-antibody interaction was measured by immobilizing rec-Protein A (Zymed) (hereinafter “Protein A”) onto a sensor chip, capturing an antibody with the immobilized Protein A, and then reacting the antibody with the antigen as an analyte using a method known to those skilled in the art. […] In the first step of the measurement, the antibody in solution was bound to Protein A/G, and the analyte solution was allowed to interact with the antibody. After three minutes of interaction, the solution was switched to HBS-EP+, and the dissociation phase was monitored for five minutes. After measurement of the dissociation phase, the sensor chip was regenerated by washing with 10 μl of 10 mM glycine-HCl (pH 1.5). The association, dissociation, and regeneration constitute one analysis cycle. Each antibody was measured according to this cycle. The obtained sensorgrams were kinetically analyzed using the Biacore-specific data analysis software, Biacore T100 Evaluation Software (GE Healthcare Biosciences).

Kd [nM]	koff [s⁻¹]	kon [M⁻¹ s⁻¹]	Binder
3.9	0.0016	420000	31R_H2L2 (antibody, V domains shown) VH: QVQLVQSGAEVKKPGASVKVSCKASGYTFTGYIMNWVRQAPGQGLEWMGLINPYNGGTSYNQQFQDRVTITADESTSTAYMELSSLRSEDTAVYYCARDGYDDGPYTMDYWGQGTLVTVSS VL: DIQMTQSPSSLSASVGDRVTITCQTSEDIYSFLAWYQQKPGKAPKLLIYNAQTEAQGVPSRFSGSGSGTDFTLTISSLQPEDFATYYCQHHYESPLTFGGGTKVEIKR
3.3	0.0012	370000	31R_H1L1 (antibody, Anti-human IL-31 receptor antibody) heavy: QVQLVQSGAEVKKPGASVKVSCKASGYTFTGYIMNWVRQAPGQGLEWMGLINPYNGGTSYNQKFKGRVTITADESTSTAYMELSSLRSEDTAVYYCARDGYDDGPYTMDYWGQGTLVTVSSASTKGPSVFPLAPSSKSTSESTAALGCLVKDYFPEPVTVSWNSGALTSGVHTFPAVLQSSGLYSLSSVVTVPSSNFGTQTYTCNVDHKPSNTKVDKTVERKSCVECPPCPAPPVAGPSVFLFPPKPKDTLMISRTPEVTCVVVDVSHEDPEVQFNWYVDGVEVHNAKTKPREEQFNSTFRVVSVLTVVHQDWLNGKEYKCKVSNKGLPAPIEKTISKTKGQPREPQVYTLPPSREEMTKNQVSLTCLVKGFYPSDIAVEWESNGQPENNYKTTPPMLDSDGSFFLYSKLTVDKSRWQQGNVFSCSVMHEALHNHYTQKSLSLSPGK light: DIQMTQSPSSLSASVGDRVTITCRTSENIYSFLAWYQQKPGKAPKLLIYNAKTLAKGVPSRFSGSGSGTDFTLTISSLQPEDFATYYCQHHYESPLTFGGGTKVEIKRTVAAPSVFIFPPSDEQLKSGTASVVCLLNNFYPREAKVQWKVDNALQSGNSQESVTEQDSKDSTYSLSSTLTLSKADYEKHKVYACEVTHQGLSSPVTKSFNRGEC
3.6	0.0016	440000	31R_H3L2 (antibody, V domains shown) VH: QVQLVQSGAEVKKPGASVKVSCKASGYTFTGYIMNWVRQAPGQGLEWMGLINPYNGGTSYNDQFQDRVTITADESTSTAYMELSSLRSEDTAVYYCARDGYDDGPYTMDYWGQGTLVTVSS VL: DIQMTQSPSSLSASVGDRVTITCQTSEDIYSFLAWYQQKPGKAPKLLIYNAQTEAQGVPSRFSGSGSGTDFTLTISSLQPEDFATYYCQHHYESPLTFGGGTKVEIKR

molecular target: T2, recombinant human IL-6R sR (R&D systems); assay: SPR (Biacore T100), antibody captured on Protein A, rhIL-6sR as analyte, 25 C
Method: The antigen-antibody interaction was measured by immobilizing 4,400 to 5,000 RU of rec-Protein A (Zymed) immobilized onto a sensor chip by the amine coupling method, binding various antibodies onto the chip, and then flowing the antigen over the chip as an analyte. For the antigen, various concentrations of rhIL-6sR were used. All measurements were carried out at 25° C. The kinetic parameters, association rate constant kₐ (1/Ms) and dissociation rate constant kd (1/s) were calculated from the sensorgrams obtained by measurement. Then, KD (M) was determined based on the rate constants. The respective parameters were determined using Biacore T100 Evaluation Software (Biacore).

Kd [nM]	koff [s⁻¹]	kon [M⁻¹ s⁻¹]	Binder
0.022	2.8e-05	1.2e+06	RDC-5 (antibody, V domains shown, also called RDC-5H/L(WT)) VH: QVQLQESGPGLVRPSQTLSLTCTVSGYSITSDHAWSWVRQPPGRGLEWIGYISYSGITTYNPSLKSRVTMLRDTSKNQFSLRLSSVTAADTAVYYCARVLARITAMDYWGQGSLVTVSS VL: DIQMTQSPSSLSASVGDRVTITCRASQDISSYLNWYQQKPGKAPKLLIYYTSRLHSGVPSRFSGSGSGTDFTFTISSLQPEDIATYYCQQGNTLPYTFGQGTKVEIK
0.065	7e-05	1.1e+06	RDC-11 (antibody, V domains shown, also called H(WT)/RDC-11L) VH: QVQLQESGPGLVRPSQTLSLTCTVSGYSITSDHAWSWVRQPPGRGLEWIGYISYSGITTYNPSLKSRVTMLRDTSKNQFSLRLSSVTAADTAVYYCARSLARTTAMDYWGQGSLVTVSS VL: DIQMTQSPSSLSASVGDRVTITCRASQDISSYLNWYQQKPGKAPKLLIYYTSRLHSGVPSRFSGSGSGTDFTFTISSLQPEDIATYYCGQGNRLPYTFGQGTKVEIK
0.027	2.9e-05	1.1e+06	RDC-4 (antibody, V domains shown, also called RDC-4H/L(WT)) VH: QVQLQESGPGLVRPSQTLSLTCTVSGYSITSDHAWSWVRQPPGRGLEWIGYISYSGITTYNPSLKSRVTMLRDTSKNQFSLRLSSVTAADTAVYYCARTLARATAMDYWGQGSLVTVSS VL: DIQMTQSPSSLSASVGDRVTITCRASQDISSYLNWYQQKPGKAPKLLIYYTSRLHSGVPSRFSGSGSGTDFTFTISSLQPEDIATYYCQQGNTLPYTFGQGTKVEIK
0.12	0.00011	940000	RD-28 (antibody, V domains shown) VH: QVQLQESGPGLVRPSQTLSLTCTVSGYSITSDHAWSWVRQPPGRGLEWIGYISYSGITTYNPSLKSRVTMLRDTSKNQFSLRLSSVTAADTAVYYCARSLARTTAMDYWGQGSLVTVSS VL: DIQMTQSPSSLSASVGDRVTITCRASQDISSYLNWYQQKPGKAPKLLIYYTSRLHSGVPSRFSGSGSGTDFTFTISSLQPEDIATYYCGQGNTLPYTFGQGTKVEIK
0.037	3.7e-05	1e+06	RDC-3 (antibody, V domains shown, also called RDC-3H/L(WT)) VH: QVQLQESGPGLVRPSQTLSLTCTVSGYSITSDHAWSWVRQPPGRGLEWIGYISYSGITTYNPSLKSRVTMLRDTSKNQFSLRLSSVTAADTAVYYCARILARATAMDYWGQGSLVTVSS VL: DIQMTQSPSSLSASVGDRVTITCRASQDISSYLNWYQQKPGKAPKLLIYYTSRLHSGVPSRFSGSGSGTDFTFTISSLQPEDIATYYCQQGNTLPYTFGQGTKVEIK
0.022	2.5e-05	1.1e+06	RDC-2 (antibody, V domains shown, also called RDC-2H/L(WT)) VH: QVQLQESGPGLVRPSQTLSLTCTVSGYSITSDHAWSWVRQPPGRGLEWIGYISYSGITTYNPSLKSRVTMLRDTSKNQFSLRLSSVTAADTAVYYCARVLARATAMDYWGQGSLVTVSS VL: DIQMTQSPSSLSASVGDRVTITCRASQDISSYLNWYQQKPGKAPKLLIYYTSRLHSGVPSRFSGSGSGTDFTFTISSLQPEDIATYYCQQGNTLPYTFGQGTKVEIK
0.029	3.5e-05	1.2e+06	RDC-6 (antibody, V domains shown, also called RDC-6H/L(WT)) VH: QVQLQESGPGLVRPSQTLSLTCTVSGYSITSDHAWSWVRQPPGRGLEWIGYISYSGITTYNPSLKSRVTMLRDTSKNQFSLRLSSVTAADTAVYYCARILARITAMDYWGQGSLVTVSS VL: DIQMTQSPSSLSASVGDRVTITCRASQDISSYLNWYQQKPGKAPKLLIYYTSRLHSGVPSRFSGSGSGTDFTFTISSLQPEDIATYYCQQGNTLPYTFGQGTKVEIK
0.038	4.2e-05	1.1e+06	RDC-7 (antibody, V domains shown, also called RDC-7H/L(WT)) VH: QVQLQESGPGLVRPSQTLSLTCTVSGYSITSDHAWSWVRQPPGRGLEWIGYISYSGITTYNPSLKSRVTMLRDTSKNQFSLRLSSVTAADTAVYYCARTLARITAMDYWGQGSLVTVSS VL: DIQMTQSPSSLSASVGDRVTITCRASQDISSYLNWYQQKPGKAPKLLIYYTSRLHSGVPSRFSGSGSGTDFTFTISSLQPEDIATYYCQQGNTLPYTFGQGTKVEIK
0.025	3.6e-05	1.4e+06	RDC-8 (antibody, V domains shown, also called RDC-8H/L(WT)) VH: QVQLQESGPGLVRPSQTLSLTCTVSGYSITSDHAWSWVRQPPGRGLEWIGYISYSGITTYNPSLKSRVTMLRDTSKNQFSLRLSSVTAADTAVYYCARLLARITAMDYWGQGSLVTVSS VL: DIQMTQSPSSLSASVGDRVTITCRASQDISSYLNWYQQKPGKAPKLLIYYTSRLHSGVPSRFSGSGSGTDFTFTISSLQPEDIATYYCQQGNTLPYTFGQGTKVEIK

Source: patent publication US20150284465A1 (Chugai, published 2015)
